The chains are these.
B1: TPR t1 (parent)
chain: GACCAAUCUGCCCUCAGAGCUCGAGAACAUCUUCGGAUGCAGAGGAGGCAGGCUUCGGUGGCGCGAUAGCGCCAACGUCCUCAACCUCCAAUGCAUCCCACCACAUGAUGAUGCCUGAAGAGCCUUGGUUUUUUG

In this data set the parent is B1. Briefly: polymerase ribozyme fitness, log enrichment relative to wild type (log ratio); higher = more active; in vitro selection for triplet polymerase activity. The essentials: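 To select mutant libraries of each subunit of a heterodimeric triplet polymerase ribozyme, built by PCR and transcribed, each was annealed with a biotinylated primer, partner subunit and triplets, then incubated frozen at −7 °C. Extended constructs were gel-excised, captured on streptavidin beads and amplified by RT-PCR, in one round carried out in triplicate. Illumina sequencing of input and output libraries kept genotypes with ≥10 input reads and ≥1 read per output. Fitness is the base-2 logarithm of genotype enrichment relative to wild-type enrichment, from inverse-variance-weighted replicate averages.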
Regarding GACCAAUCUGCCCUCAGAGCUCGAGAACAUCUUCGGAUGCAGAGGAGGCAGGCUUCGGUGGCGCGAUAGCGUCAACGUCCUCAACCUCCAUUGCAUCCCUCCACAUGAUGAUGCCUGAUGAGCCUUGGUUUUUUG [C72U A91U A100U A119U], the “polymerase ribozyme fitness (log ratio)” value was -3.58.

For GACCAAUCUGCCCUCAGAGCUCGAGAACAUCUUCGGAUGCAGAGGAGGCAGGCUUCGGUGGCGCGAUAGCGUCAACGUCCUCAACCUCCAGUGCAUCCCACCAAAUGAUGAUGCCUGAAGAGCCUUCGUUUUUUG [C72U A91G C104A G127C], the “polymerase ribozyme fitness (log ratio)” value was -4.76. As for GACCAAUCUGCCCUCAGAGCUCGAGAACAUCUUCGGAUGCAGAGGAGGCAGGCUUCGGUGGCGCGAUAGCGUUAACGUCCUCAACCUUCAAUGCAUCCCACCACAUGAUGAUUCCUGAAGAGCCAUGGUUUUUUG [C72U C73U C88U G113U U125A], the “polymerase ribozyme fitness (log ratio)” value is -5.18. As to GACCAAUCUGCCCUCAGAGCUCGAGAACAUCUUCGGAUGCAGAGGAGGCAGGCUUCGGUGGCGCGAUAGCGUCAACGUCCUCAACCUCCAAUGCAUCCCACCACAUGAUGAUGCCUGCAGAGCCUUGGUUUUUUG [C72U A118C], the “polymerase ribozyme fitness (log ratio)” value is -2.89. The result for GACCAAUCUGCCCUCAGAGCUCGAGAACAUCUUCGGAUGCAGAGGAGGCAGGCUUCGGUGGCGCGAUAGCGUCAACGUCCUCAACCUCCAAUGCAUCCUACCACAUGAUGAUGCCUGAUGAGCCUUGGUUUUUUG [C72U C99U A119U] reads -3.8; that for GACCAAUCUGCCCUCAGAGCUCGAGAACAUCUUCGGAUGCAGAGGAGGCAGGCUUCGGUGGCGCGAUAGCGGCAACGUCCUCAACCUCCAAUGCAUCCCACCACAAGAUGAUGCCUGAAGAGCCUUGGUUUUUUG [C72G U106A], -0.511. For GACCAAUCUGCCCUCAGAGCUCGAGAACAUCUUCGGAUGCAGAGGAGGCAGGCUUCGGUGGCGCGAUAGCGUCAACGUCCUCAACCUCCACUUCAUCCCACCACAUGAUGAUGCCUGAAGAGCCUGGGUUUUUUG [C72U A91C G93U U126G] the value was -4.23; for GACCAAUCUGCCCUCAGAGCUCGAGAACAUCUUCGGAUGCAGAGGAGGCAGGCUUCGGUGGCGCGAUAGCGUCAACGUCCUCAACCUCCAAUGCAUCUCACCACAUGAUGAUGCCAGAAGAGCCUUGGUUUUUUG [C72U C98U U116A], -4.95. For GACCAAUCUGCCCUCAGAGCUCGAGAACAUCUUCGGAUGCAGAGGAGGCAGGCUUCGGUGGCGCGAUAGCGUCAACGUCCUCAACCUCCAAUGCAUCCCACCACAUGAUGAUGCCUGAUGAGCCUUGGUUUUUUG [C72U A119U] the value was -0.327; for GACCAAUCUGCCCUCAGAGCUCGAGAACAUCUUCGGAUGCAGAGGAGGCAGGCUUCGGUGGCGCGAUAGCGUCAACGUACUCGACCUCCAAUGCAUCCCACCACAUGAUGAUGCGUGAAGAGACUUGGUUGUUUG [C72U C79A A83G C115G C123A U131G], -4.99. In the case of GACCAAUCUGCCCUCAGAGCUCGAGAACAUCUUCGGAUGCAGAGGAGGCAGGCUUCGGUGGCGCGAUAGCGUCAACGUCCUCAACCUACAAUGCAUCCCAACACAUGAUGAUGCCUGAAGAGCCUUGGUUUUUUG [C72U C88A C101A], the “polymerase ribozyme fitness (log ratio)” value is -1.43. For GACCAAUCUGCCCUCAGAGCUCGAGAACAUCUUCGGAUGCAGAGGAGGCAGGCUUCGGUGGCGCGAUAGCGUCAACGUCCUCAACCUCCAAUGCAUCUCACCACAUGAUGAUGCCUGAAGAGCCUUGGUUUUUUG [C72U C98U] the value was -1.53; for GACCAAUCUGCCCUCAGAGCUCGAGAACAUCUUCGGAUGCAGAGGAGGCAGGCUUCGGUGGCGCGAUAGCGUCAACGUCCUCAACCUCCAAUGCAUCCCACCACAUGAUGAUGCCUGAAGAGCCUUGGUUUUUUG [C72U], -0.393; for GACCAAUCUGCCCUCAGAGCUCGAGAACAUCUUCGGAUGCAGAGGAGGCAGGCUUCGGUGGCGCGAUAGCGUCAACGUCCUCAACGUCCAAUGCAUCCCACCACAUGAUGAUGCCUGAAGAGCCUGGGUUUUUUG [C72U C86G U126G], -3.16. The result for GACCAAUCUGCCCUCAGAGCUCGAGAACAUCUUCGGAUGCAGAGGAGGCAGGCUUCGGUGGCGCGAUAGCGUCACCGUCCUCAACCUCCAAUGCAUCCCACCACAUGAUGAUGCCUGUAUAGCCUUGGUUUUUUG [C72U A75C A118U G120U] reads -0.721. The result for GACCAAUCUGCCCUCAGAGCUCGAGAACAUCUUCGGAUGCAGAGGAGGCAGGCUUCGGUGGCGCGAUAGCGUCAACGUCCUCAACGUCCAAUGCAUCCCACCACAUGAUGAUGCCUGAAGAGCCUUGGUUUUUUG [C72U C86G] reads -0.742; that for GACCAAUCUGCCCUCAGAGCUCGAGAACAUCUUCGGAUGCAGAGGAGGCAGGCUUCGGUGGCGCGAUAGCGUCAACGUCCUGAACCUCCAAUGCAUCCCACCACAUGAUUAUGCCUGAAGAGCCUUGGUUUUUUG [C72U C82G G110U], -2.93; that for GACCAAUCUGCCCUCAGAGCUCGAGAACAUCUUCGGAUGCAGAGGAGGCAGGCUUCGGUGGCGCGAUAGCGUCAACGUCCUCAACUUCCAAUGCAUCCCACCACAUUAUGAUUCCUGAAGAGCCUUGGUUUUUUG [C72U C86U G107U G113U], -6.11.

As to GACCAAUCUGCCCUCAGAGCUCGAGAACAUCUUCGGAUGCAGAGGAGGCAGGCUUCGGUGGCGCGAUAGCGUCAACGUCCUCCACCUCCAAUGCAUCCCACCACAUGAUGAUGCGUGAAGAGCCUUGGUUUUUUG [C72U A83C C115G], the “polymerase ribozyme fitness (log ratio)” value is -1.78. With GACCAAUCUGCCCUCAGAGCUCGAGAACAUCUUCGGAUGCAGAGGAGGCAGGCUUCGGUGGCGCGAUAGCGUCAACGUCCUCAACCUCCAAUGCAUCCCAGCACAUGAUGAUGCCUGAAGAGCCUUGGUUUUUUG [C72U C101G], the “polymerase ribozyme fitness (log ratio)” value is -2.18. For GACCAAUCUGCCCUCAGAGCUCGAGAACAUCUUCGGAUGCAGAGGAGGCAGGCUUCGGUGGCGCGAUAGCGGCAACGUCCUCAACCACCAAUGCAUCCCACCACAUGAUGAUGCCUGAAGAGCCUUGGUUUUUUG [C72G U87A] the value was -2.08.

The record behind these values is the RNAGym collection of RNA variant scans (doi:10.1073/pnas.2313332121).
